From patent publication US20180280496A1
Read-outs that look alike come from different tables or passages of the source.

Key:
HLA-B*40:01 [1] = conditions: chains peptide; modification not given
HLA-A*32:01 [2] = conditions: chains peptide; modification not given
HLA-B*40:01 [3] = conditions: chains peptide; modification not given; remark: listed apart in the source
HLA-A*32:01 [4] = conditions: chains peptide; modification not given; remark: listed apart in the source
A*11:01 (human), P04439 [5] = conditions: modification not given
A*03:01 (human), P04439 [6] = conditions: modification not given
A*11:01 (human), P04439 [7] = conditions: modification not given; remark: listed apart in the source
A*03:01 (human), P04439 [8] = molecular target: T1, A*03:01 (human), P04439; conditions: modification not given
T1 chain: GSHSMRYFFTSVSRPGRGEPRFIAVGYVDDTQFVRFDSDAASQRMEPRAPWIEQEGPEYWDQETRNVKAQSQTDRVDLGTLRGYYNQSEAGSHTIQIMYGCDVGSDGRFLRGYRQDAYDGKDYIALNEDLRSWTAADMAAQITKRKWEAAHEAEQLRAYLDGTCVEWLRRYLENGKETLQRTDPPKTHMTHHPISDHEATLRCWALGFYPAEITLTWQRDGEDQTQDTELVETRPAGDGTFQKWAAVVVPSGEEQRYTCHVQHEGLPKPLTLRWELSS

A*03:01 (human), P04439 [9] = assay: ProImmune REVEAL MHC class I-peptide binding assay
A*11:01 (human), P04439 [10] = assay: ProImmune REVEAL MHC class I-peptide binding assay
A*11:01 (human), P04439 [11] = conditions: modification not given; remark: listed apart in the source
A*03:01 (human), P04439 [12] = molecular target: T1, A*03:01 (human), P04439; conditions: modification not given

B1: SEQ ID NO: 310 serotype 1 (peptide)
chain: KQWFLDLPL
- IC50 (HLA-B*40:01 [1]): 398 nM
- IC50 (HLA-A*32:01 [2]): 8 nM

B2: SEQ ID NO: 310 serotype 4 (peptide)
chain: KQWFLDLPL
- IC50 (HLA-B*40:01 [3]): 398 nM
- IC50 (HLA-A*32:01 [4]): 8 nM

B3: SEQ ID NO: 311 serotype 1 (peptide)
chain: ALKLSWFKK
- IC50 (A*11:01 (human), P04439 [5]): 59 nM
- IC50 (A*03:01 (human), P04439 [6]): 42 nM

B4: SEQ ID NO: 311 serotype 3 (peptide)
chain: ALKINWYRK
- IC50 (A*11:01 (human), P04439 [7]): 376 nM
- IC50 (A*03:01 (human), P04439 [8]): 193 nM

B5: … (peptide)
peptide: MCHATFTMR
modifications: not checked
- REVEAL score at 0 h (A*03:01 (human), P04439 [9]): 86.8
- REVEAL score at 0 h (A*11:01 (human), P04439 [10]): 91

B6: SEQ ID NO: 311 serotype 2 (peptide)
chain: QLKLNWFKK
- IC50 (A*11:01 (human), P04439 [11]): 778 nM
- IC50 (A*03:01 (human), P04439 [12]): 151 nM
